Data from patent publication EP2168984B1.

Tests used:
Assay in all cases: cell-based or functional assay
[1] = target: murine IL-12 (mouse) (UniProt P43431)
[2] = target: Baboon IL-12 (baboon)
[3] = target: Cyno IL-12 (cynomolgus monkey)
[4] = target: Rhesus IL-12 (rhesus monkey) (UniProt P48091)
[5] = target: recombinant human IL-12 (human) (UniProt P29459)
Chain of recombinant human IL-12 (human) (P29459 23-219, chain 1 of 2): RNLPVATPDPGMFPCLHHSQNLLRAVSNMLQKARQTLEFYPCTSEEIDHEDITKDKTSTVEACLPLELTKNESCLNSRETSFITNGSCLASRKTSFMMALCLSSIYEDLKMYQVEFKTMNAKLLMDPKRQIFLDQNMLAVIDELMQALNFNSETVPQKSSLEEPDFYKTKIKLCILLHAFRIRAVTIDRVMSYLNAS
Chain of recombinant human IL-12 (human) (P29460 23-328, chain 2 of 2, further chain): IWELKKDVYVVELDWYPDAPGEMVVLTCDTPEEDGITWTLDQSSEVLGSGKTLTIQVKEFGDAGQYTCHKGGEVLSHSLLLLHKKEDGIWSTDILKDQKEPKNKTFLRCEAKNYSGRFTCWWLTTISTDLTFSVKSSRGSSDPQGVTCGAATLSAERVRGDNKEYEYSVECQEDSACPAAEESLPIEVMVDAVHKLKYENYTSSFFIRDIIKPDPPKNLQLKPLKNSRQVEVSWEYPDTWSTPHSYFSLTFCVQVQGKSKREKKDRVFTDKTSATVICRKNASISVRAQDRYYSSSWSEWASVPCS

Chain of murine IL-12 (mouse) (P43431 23-215, chain 1 of 2): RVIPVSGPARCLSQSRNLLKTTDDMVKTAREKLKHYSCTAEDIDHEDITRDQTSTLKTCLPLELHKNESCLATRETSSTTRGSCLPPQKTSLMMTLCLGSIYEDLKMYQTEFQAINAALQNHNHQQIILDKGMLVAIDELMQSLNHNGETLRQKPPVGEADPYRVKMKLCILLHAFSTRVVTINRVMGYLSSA
Chain of murine IL-12 (mouse) (P43432 23-335, chain 2 of 2, further chain): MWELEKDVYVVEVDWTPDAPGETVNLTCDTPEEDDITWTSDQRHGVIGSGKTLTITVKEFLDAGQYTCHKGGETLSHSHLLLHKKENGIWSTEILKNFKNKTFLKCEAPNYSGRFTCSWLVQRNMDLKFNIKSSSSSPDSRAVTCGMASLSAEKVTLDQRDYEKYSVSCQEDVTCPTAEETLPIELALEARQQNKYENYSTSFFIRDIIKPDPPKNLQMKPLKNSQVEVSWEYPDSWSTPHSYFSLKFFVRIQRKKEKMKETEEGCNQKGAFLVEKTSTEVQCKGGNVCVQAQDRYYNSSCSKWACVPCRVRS
Chain of Rhesus IL-12 (rhesus monkey) (P48091 23-219, chain 1 of 2): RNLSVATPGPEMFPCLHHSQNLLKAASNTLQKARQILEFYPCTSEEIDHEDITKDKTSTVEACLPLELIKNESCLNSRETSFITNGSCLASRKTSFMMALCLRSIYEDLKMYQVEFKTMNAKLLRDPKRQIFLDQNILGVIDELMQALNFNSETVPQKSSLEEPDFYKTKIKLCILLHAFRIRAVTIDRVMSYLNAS
Chain of Rhesus IL-12 (rhesus monkey) (P48095 23-328, chain 2 of 2, further chain): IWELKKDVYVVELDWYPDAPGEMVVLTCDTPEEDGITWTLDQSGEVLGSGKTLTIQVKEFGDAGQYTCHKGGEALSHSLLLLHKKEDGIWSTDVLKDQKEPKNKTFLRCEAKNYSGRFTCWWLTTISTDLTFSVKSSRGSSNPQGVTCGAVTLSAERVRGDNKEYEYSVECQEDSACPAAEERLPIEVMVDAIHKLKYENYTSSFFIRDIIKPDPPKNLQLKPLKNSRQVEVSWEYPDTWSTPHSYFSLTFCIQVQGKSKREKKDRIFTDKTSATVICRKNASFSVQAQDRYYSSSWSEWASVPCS

Row | IC50 (M), species cross reactivity bioassay [1] | PHA blast Assay IC50 [1] | IC50 (M), species cross reactivity bioassay [2] | IC50 (M), species cross reactivity bioassay [3] | IC50 (M), species cross reactivity bioassay [4] | IC50 (M), species cross reactivity bioassay [5] | Substance
1 | 3e-11 M | 0.014 nM | – | – | – | – | C17.15 (antibody)
2 | – | – | 2e-10 M | 1.2e-10 M | 1e-10 M | 5e-11 M | C8.6.2 (antibody)
